According to patent publication US20100105151A1:
Like-named read-outs stand apart in the source and are kept apart here.

Tests used:
[1] = biological target: T1, trimeric, post-fusion form of sE, the soluble fragment of dengue virus type 2 (S1 strain) envelope glycoprotein E (dengue virus type 2 S1 strain), P12823; test: fluorescence depolarization
[2] = biological target: T1, trimeric, post-fusion form of sE, the …
[3] = biological target: T1, trimeric, post-fusion form of sE, the …; test: fluorescence depolarization; 33nM labelled peptide titrated with dengue sE trimer (x axis µM E)
[4] = biological target: T1, trimeric, post-fusion form of sE, the …; test: fluorescence depolarization, labeled peptide titrated with trimeric sE

Binder | Kd [1] [µM] | EC50 (read off the curve) [2] [µM] | EC50 (read off the curve) [3] [µM] | Kd [4] [µM]
AILGDTAWDFGSLGGVFTSIGKALHQVFGAIYGAA (modifications not checked) [stem peptide including residues 413-447 of dengue envelope protein E] | 4 | 3 | – | –
SSIGQMFETTMRGAKRMAILGDTAWDFGSLGGVF (modifications not checked) [fluorescently labeled version of the peptide corresponding to residues 396-429 (stem region) of deng] | – | – | 5 | 6
